Measurements reported in IntAct's records for PubMed 18423203.

B1: Peripheral plasma membrane protein CASK (Homo sapiens), O14936 (parent)
chain: MADDDVLFEDVYELCEVIGKGPFSVVRRCINRETGQQFAVKIVDVAKFTSSPGLSTEDLKREASICHMLKHPHIVELLETYSSDGMLYMVFEFMDGADLCFEIVKRADAGFVYSEAVASHYMRQILEALRYCHDNNIIHRDVKPHCVLLASKENSAPVKLGGFGVAIQLGESGLVAGGRVGTPHFMAPEVVKREPYGKPVDVWGCGVILFILLSGCLPFYGTKERLFEGIIKGKYKMNPRQWSHISESAKDLVRRMLMLDPAERITVYEALNHPWLKERDRYAYKIHLPETVEQLRKFNARRKLKGAVLAAVSSHKFNSFYGDPPEELPDFSEDPTSSGLLAAERAVSQVLDSLEEIHALTDCSEKDLDFLHSVFQDQHLHTLLDLYDKINTKSSPQIRNPPSDAVQRAKEVLEEISCYPENNDAKELKRILTQPHFMALLQTHDVVAHEVYSDEALRVTPPPTSPYLNGDSPESANGDMDMENVTRVRLVQFQKNTDEPMGITLKMNELNHCIVARIMHGGMIHRQGTLHVGDEIREINGISVANQTVEQLQKMLREMRGSITFKIVPSYRTQSSSCERDSPSTSRQSPANGHSSTNNSVSDLPSTTQPKGRQIYVRAQFEYDPAKDDLIPCKEAGIRFRVGDIIQIISKDDHNWWQGKLENSKNGTAGLIPSPELQEWRVACIAMEKTKQEQQASCTWFGKKKKQYKDKYLAKHNAVFDQLDLVTYEEVVKLPAFKRKTLVLLGAHGVGRRHIKNTLITKHPDRFAYPIPHTTRPPKKDEENGKNYYFVSHDQMMQDISNNEYLEYGSHEDAMYGTKLETIRKIHEQGLIAILDVEPQALKVLRTAEFAPFVVFIAAPTITPGLNEDESLQRLQKESDILQRTYAHYFDLTIINNEIDETIRHLEEAVELVCTAPQWVPVSWVY

Variants of: B1
Details: with nrx1b_rat Nrxn1, Q63373
Chain of nrx1b_rat Nrxn1, Q63373 (Q63373 whole entry): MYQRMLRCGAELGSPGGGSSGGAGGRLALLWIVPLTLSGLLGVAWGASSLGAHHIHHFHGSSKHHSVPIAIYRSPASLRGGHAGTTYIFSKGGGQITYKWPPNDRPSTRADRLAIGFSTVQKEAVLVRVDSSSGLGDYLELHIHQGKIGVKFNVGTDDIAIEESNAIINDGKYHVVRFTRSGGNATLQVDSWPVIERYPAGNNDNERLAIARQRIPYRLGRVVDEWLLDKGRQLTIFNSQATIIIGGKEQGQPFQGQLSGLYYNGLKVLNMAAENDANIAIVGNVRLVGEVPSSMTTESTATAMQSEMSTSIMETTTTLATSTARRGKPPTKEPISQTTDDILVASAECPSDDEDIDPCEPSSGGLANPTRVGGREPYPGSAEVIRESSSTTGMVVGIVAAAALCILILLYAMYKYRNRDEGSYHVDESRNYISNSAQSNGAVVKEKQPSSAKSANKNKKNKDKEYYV

| effect of a mutation on the interaction | Variant |
| --- | --- |
| decreasing interaction | S24D;V26L |
